Experimental data published in patent US11994512B2, “Single-cell genomic methods to generate ex vivo cell systems that recapitulate in vivo biology with improved fidelity” (Massachusetts Institute of Technology, priority 2018, dated 2024).

B1: Q9QYY9 (protein, UniProt Q9QYY9 1-377, looked up)
chain: MGTQGKVIKCKAAIAWKTGSPLCIEEIEVSPPKACEVRIQVIATCVCPTDINATDPKKKALFPVVLGHECAGIVESVGPGVTNFKPGDKVIPFFAPQCKRCKLCLSPLTNLCGKLRNFKYPTIDQELMEDRTSRFTCKGRSIYHFMGVSSFSQYTVVSEANLARVDDEANLERVCLIGCGFSSGYGAAINTAKVTPSSTCAVFGLGCVGLSAIIGCKIAGASRIIAIDINGEKFPKAKALGATDCLNPRELDKPVQDVITELTAGGVDYSLDCAGTAQTLKAAVDCTVLGWGSCTVVGAKVDKMTIPTVDVILGRSINGTFFGGWKSVDSVPNLVSDYKNKKFDLDLLVTHALPFESINDAIDLMKEGKSIRTILTF
modifications: full-length
B2: Q9QYB2 (protein, UniProt Q9QYB2 1-751, looked up)
chain: MAVPAALIPPTQLVPPQPPISTSASSSGTTTSTSSATSSPAPSIGPPASSGPTLFRPEPIASSASSSAAATVTSPGGGGGGSGGGGGSGGNGGGGGSNCNPSLAAGSSGGGVSAGGGGASSTPITASTGSSSSSSSSSSSSSSSSSSSSSSSSSSSCGPLPGKPVYSTPSPVENTPQNNECKMVDLRGAKVASFTVEGCELICLPQAFDLFLKHLVGGLHTVYTKLKRLEITPVVCNVEQVRILRGLGAIQPGVNRCKLISRKDFETLYNDCTNASSRPGRPPKRTQSVTSPENSHIMPHSVPGLMSPGIIPPTGLTAAAAAAAAATNAAIAEAMKVKKIKLEAMSNYHASNNQHGADSENGDMNSSVGSSGGSWDKETLHSPPSQGSQAPVAHARMPAAFSLPVSHPLNHLQHSHLPPNGLELPFMMMPHPLIPVSLPPASVTMAMSQMNHLSTIANMAAAAQVQSPPSRVETSVIKERVPDSPSPAPSLEEGRRPGSHPSSHRSSSVSSSPARTESSSDRIPVHQNGLSMNQMLMGLSPNVLPGPKEGDLAGHDMGHESKRIHIEKDETPLSTPTARDSIDKLSLTGHGQPLPPGFPSPFLFPDGLSSIETLLTNIQGLLKVAIDNARAQEKQVQLEKTELKMDFLRERELRETLEKQLAMEQKNRAIVQKRLKKEKKAKRKLQEALEFETKRREQAEQTLKQAASADSLRVLNDSLTPEIEADRSGGRADAERTIQDGRLYLKTTVMY
modifications: full-length
B3: Q9R098 (protein, UniProt Q9R098 1-653, looked up)
chain: MGRQAWISSLCPLPRPCPFLLLLLLLVVPRGAQPQAGRNHTEPPGPNVTATPVTPTIPVISGNVSTSTESAPAAETEGPQSERYPPPSSSSPPGGQVLTESGQPCRFPFRYGGRMLHSCTSEGSAYRKWCATTHNYDRDRAWGYCAEVTLPVEGPAILDPCASGPCLNGGTCSSTHDHGSYHCSCPLAFTGKDCGTEKCFDETRYEYFEVGDHWARVSEGHVEQCGCMEGQARCEDTHHTACLSSPCLNGGTCHLIVGTGTSVCTCPLGYAGRFCNIVPTEHCFLGNGTEYRGVASTAASGLSCLAWNSDLLYQELHVDSVAAAVLLGLGPHAYCRNPDKDERPWCYVVKDNALSWEYCRLTACESLARVHSQTPEILAALPESAPAVRPTCGKRHKKRTFLRPRIIGGSSSLPGSHPWLAAIYIGNSFCAGSLVHTCWVVSAAHCFANSPPRDSITVVLGQHFFNRTTDVTQTFGIEKYVPYTLYSVFNPNNHDLVLIRLKKKGERCAVRSQFVQPICLPEAGSSFPTGHKCQIAGWGHMDENVSSYSNSLLEALVPLVADHKCSSPEVYGADISPNMLCAGYFDCKSDACQGDSGGPLVCEKNGVAYLYGIISWGDGCGRLNKPGVYTRVANYVDWINDRIRPPKRPVATS
modifications: full-length
B4: Q9WVJ3 (protein, UniProt Q9WVJ3 1-470, looked up)
chain: MRSLFFLFIVHLLALGSGKAVFKNGVSQRTFREIKEEIANYEDVAKAIINLAVYGKYQNRSYERLGLLVDTVGPRLSGSKNLEKAIQIMYQNLQQDGLENVHLEQVRIPHWERGEESAVMLEPRIHKMAILGLGSSIGTPPGGITAEVLVVASFDELQRRASEARGKIIVYNQPYTGYEKTVQYRVQGAVEAAKVGAVASLIQSVASFSIYSPHTGIQKYQDGVPKIPTACITVEDAEMMSRMASRGNKIVIHLEMGAKTYPDTDSFNTVAEITGSMYPEEVVLVSGHLDSWDVGQGALDDGGGAFISWEALSLVKDLGLRPKRTLRLVLWTAEEQGGIGASQYYELHKANISKYSLVMEADSGTFLPTGLQFTGSDKARAIMKEVMNLLQPLNVTKVFSNGEGTDINFWIQAGVPGASLRDDLYKYFFFHHSHGDTMTVMDPKQMNVAAAVWAVVAYVVADMDEMLPRS
modifications: full-length
B5: Q9R022 (protein, UniProt Q9R022 1-198, looked up)
chain: MDAILNYRPEGSEDYYALLGCDELSSVEQILAEFKIRALECHPDKHPENSKAVETFQKLQKAKEILCNAESRARYDHWRRSQMSMPFEQWEALADSVKTSMHWAVRSKKDLMLEGSGQTFTSSVPNKERSEQRETKKGDPDSNPEKMKQKEPKFPEEGISPQNPDSPGLSDLNCGHLRFRWSGDAPSELLRKFRNYEI
modifications: full-length

Tested on: intracellular proteome of ENR+CD and ENR organoids
Experiment: LC-MS/MS TMT proteomics of ENR+CD versus ENR organoids
Format: cell-based, C57BL/6 mice
Conditions: for Average logFC: ENR+CD versus ENR organoids, sample pairs in aggregate (n=4, 2 technical replicates from two biological donors); for M1-1 Log2 Median Normalized / M1-2 Log2 Median Normalized / M2-1 Log2 Median Normalized / M2-2 Log2 Median Normalized: protein abundance ratio ENR+CD versus ENR organoids, LC-MS/MS TMT proteomics; for M1-1 Log2 Median Normalized: sample pair M1-1; for M1-2 Log2 Median Normalized: sample pair M1-2; for M2-1 Log2 Median Normalized: sample pair M2-1; for M2-2 Log2 Median Normalized: sample pair M2-2; for change: up = enriched in ENR+CD, down = enriched in ENR, FDR<0.05 and log fold change cut-off

Row | Molecule | Average logFC | M1-1 Log2 Median Normalized | M1-2 Log2 Median Normalized | M2-1 Log2 Median Normalized | M2-2 Log2 Median Normalized | change
1 | B1 | −1.654 | −1.109 | −2.606 | −2.0305 | −0.87 | down
2 | B2 | 1.286 | 0.838 | 1.286 | 1.3505 | 1.402 | up
3 | B3 | 1.366 | 1.864 | 1.188 | 0.7445 | 1.669 | up
4 | B4 | 1.351 | 1.348 | 0.221 | 2.1645 | 1.67 | up
5 | B5 | 1.154 | 1.573 | 1.212 | 0.6885 | 1.141 | up
